The results in this text go back to patent US20170015738A1 (H LUNDBECK A S, published 2017).

In assay [1] the target is T1, tau antigens from human AD brain, S1(p) fraction (human, UniProt P10636 2-758, phosphorylated; sites not listed for this fraction).
T1 construct: Brain-derived; isoform mix; also called AD-S1(p); AD s1(p)
Description: fluid phase MSD ELISA: inhibition of tau antigen capture. The protocol: B: The samples were incubated on MSD plates coated with AD-P3 (1 μg/ml) for 2 hours followed by wash and detection of captured Tau antigens using sulfo tagged anti-total TauG antibodies.
For orientation: ELISA stands for enzyme-linked immunosorbent assay.

The target in assay [2] is T2, pathological hyperphosphorylated tau from human Alzheimer's disease brain, sarkosyl-insoluble P3 fraction (human, UniProt P10636 2-758, hyperphosphorylated; phosphoserine at 396 (other sites not listed)).
T2 construct: Brain-derived mixture of tau isoforms (bands at 54, 64, 69 and 74 kDa); also called AD-P3; AD P3
T2 sequence (P10636 other isoform, or with tags, fused parts or gaps limits assumed): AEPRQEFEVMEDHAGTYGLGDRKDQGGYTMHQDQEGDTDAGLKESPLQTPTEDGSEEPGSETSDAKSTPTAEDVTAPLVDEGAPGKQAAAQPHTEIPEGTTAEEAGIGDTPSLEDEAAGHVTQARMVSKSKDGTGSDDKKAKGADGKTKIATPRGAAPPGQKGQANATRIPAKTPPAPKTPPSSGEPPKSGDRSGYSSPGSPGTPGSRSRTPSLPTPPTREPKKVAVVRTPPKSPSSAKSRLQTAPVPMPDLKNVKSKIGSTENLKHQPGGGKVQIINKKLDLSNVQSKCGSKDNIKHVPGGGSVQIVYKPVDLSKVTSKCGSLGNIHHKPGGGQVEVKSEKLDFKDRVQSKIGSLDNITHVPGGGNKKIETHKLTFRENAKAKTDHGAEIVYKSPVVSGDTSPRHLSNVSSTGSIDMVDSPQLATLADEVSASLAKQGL
Kind of assay: MSD ELISA on immobilised P3 tau; ratio of binding to AD over healthy control at saturation.

T1 sequence (P10636 other isoform, or with tags, fused parts or gaps limits assumed): as above

B1: Antibody C10-2 (murine) (antibody, mouse IgG1, kappa, V domains shown)
VH: QVQLQQSDAELVKPGASVKISCKASGYTFTDRTIHWVKQRPEQGLEWIGYIYPGDGSTKYNENFKGKATLTADKSSSTAYMQLNSLTSEDSAVYFCARRGAMDYWGQGTSVTVSS
VL: DVQMIQSPSSLSASLGDIVTMTCQASQGTSINLNWFQQKPGKAPKLLIYGASNLEDGVPSRFSGSRYGTDFTLTISSLEDEDMATYFCLQHTYLPFTFGSGTKLEIKR
notes: Mouse monoclonal from hybridoma; also called mC10-2; mouse C10-2
B1 came in with a half-inhibitory concentration (IC50) in assay [1] of 11 nM.

B2: Antibody D1.2 (antibody, mouse IgG2b, kappa, V domains shown)
VH: QVQLQQSGAELVRPGASVTLSCKASGNTFTDYEIHWVKQTPVHGLEWIGAIDPETGNTAYNQKFKGKARLTADKSSSTAYMELRSLTSEDSAVYYCTRSRGFDYWGQGTTLTVSS
VL: DVMMTQTPLSLPVSLGDQASISCRSSQSLVHSNGNTYLHWHLQKPGQSPKFLIYKVSNRFSGVPDRFSGSGSGTDFTLKISRVEAEDLGVYFCSQSTHVPFTFGSGTKLEIKR
notes: Mouse monoclonal; also called mD1.2; mouse D1.2
In assay [1], B2 showed a half-inhibitory concentration (IC50) of 503 nM. This IC50 lies about 46-fold higher than the previous one.

B3: IPN002 (antibody, V domains shown)
VH: EVHLVESGGALVKPGGSLKLSCAASGFSFSKYGMSWVRQTPDKRLEWVATISSSGSRTYYPDSVKGQFTISRDNAKNTLYLQMSSLKSEDTAMYYCSISWDGAMDYWGQGTSVTVSS
VL: DVLMTQTPLSLPVSLGDQASISCKSSQSIVHSNGNTYLEWYLQKPGQSPKLLVYKVSNRFSGVPDRFSGSGSGTDFTLKISRVEAEDLGTYYCFQGSLVPWAFGGGTKLEIK
Consider B3, for which, in assay [2], the AD/ctrl is 3 fold.

By IC50 is commonly meant the point on the concentration scale where inhibition reaches its midpoint. The low end stands for greater potency in that assay, the high end for weaker potency in that assay.
